Assay results: patent US20240165253A1 (REMEGEN, published 2024)

Legend:
c-Met protein = molecular target: T1, c-Met protein (UniProt P08581 25-932, limits assumed); experiment: ELISA, plate coated with c-Met protein at 2 ug/ml, HRP detection antibody
T1 construct: The construct is not described; also called c-Met antigen
Protocol: The c-Met protein was prepared with a diluent to a final concentration of 2 μg/ml, and added to a microplate at 100 μl per well, overnight at 4° C. The solution in the well was discarded, and the plate was washed three times with PBST. The plate was added with a blocking solution at 300 μl/well and incubated at 37° C. for 2 h. The solution in the well was discarded, and the plate was washed three times with PBST. […] The solution in the well was discarded, and the plate was washed three times with PBST. HRP detection antibody was prepared by adding diluent at a dilution of 1:5000, added at 100 μl per well, and incubated at 37° C. for 1 h. The solution in the well was discarded, and the plate was washed three times with PB ST. The plate was added with TMB color developing solution, incubated at room temperature for 2 min, and then added with Elisa stop solution.

soluble ED protein = molecular target: T2, soluble ED protein (UniProt P08581 25-932, limits assumed); experiment: ELISA, plate coated with soluble ED protein, HRP anti-human IgG Fc detection
T2 construct: domain: ED; It is read here as the c-Met extracellular domain because the antibodies are anti-c-Met
Protocol: The affinities of chimeric cAAJ8D6 and the humanized antibody AAJ8D6 were determined by ELISA. A 96-well plate was coated with soluble ED protein and then incubated with diluted antibodies. ED-related antibodies were detected with an HRP-conjugated goat F(ab′)2 anti-human IgG Fc-specific secondary antibody.

T1 sequence (P08581 25-932 limits assumed): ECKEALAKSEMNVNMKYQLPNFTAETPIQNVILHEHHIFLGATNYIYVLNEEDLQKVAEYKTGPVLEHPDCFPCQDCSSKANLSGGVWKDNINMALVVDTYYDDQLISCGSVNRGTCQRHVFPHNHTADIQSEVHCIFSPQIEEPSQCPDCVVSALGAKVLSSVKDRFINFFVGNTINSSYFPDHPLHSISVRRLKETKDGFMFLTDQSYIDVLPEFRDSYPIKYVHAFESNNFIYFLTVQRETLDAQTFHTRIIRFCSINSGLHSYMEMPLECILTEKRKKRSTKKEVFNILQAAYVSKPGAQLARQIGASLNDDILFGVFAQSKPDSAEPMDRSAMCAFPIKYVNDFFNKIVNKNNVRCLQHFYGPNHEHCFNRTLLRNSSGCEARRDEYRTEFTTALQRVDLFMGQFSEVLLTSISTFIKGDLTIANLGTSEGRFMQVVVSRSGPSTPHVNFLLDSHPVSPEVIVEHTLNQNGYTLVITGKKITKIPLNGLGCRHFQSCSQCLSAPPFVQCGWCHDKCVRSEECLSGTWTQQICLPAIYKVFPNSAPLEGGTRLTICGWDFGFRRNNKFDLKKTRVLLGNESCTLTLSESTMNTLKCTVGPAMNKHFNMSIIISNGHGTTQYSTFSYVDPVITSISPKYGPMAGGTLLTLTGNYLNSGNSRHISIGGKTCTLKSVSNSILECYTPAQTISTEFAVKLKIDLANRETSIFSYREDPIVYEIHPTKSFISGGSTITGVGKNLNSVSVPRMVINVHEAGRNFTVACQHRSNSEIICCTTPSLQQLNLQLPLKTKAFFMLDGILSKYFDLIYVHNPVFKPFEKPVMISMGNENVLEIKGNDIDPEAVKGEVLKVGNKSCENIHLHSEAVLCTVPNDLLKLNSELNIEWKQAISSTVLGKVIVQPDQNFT
T2 sequence (P08581 25-932 limits assumed): as above

| Binder | EC50 (c-Met protein) | EC50 (soluble ED protein) |
| --- | --- | --- |
| ABT-700 (telisotuzumab) (antibody, V domains shown) VH: QVQLVQSGAEVKKPGASVKVSCKASGYIFTAYTMHWVRQAPGQGLEWMGWIKPNNGLANYAQKFQGRVTMTRDTSISTAYMELSRLRSDDTAVYYCARSEITTEFDYWGQGTLVTVSS VL: DIVMTQSPDSLAVSLGERATINCKSSESVDSYANSFLHWYQQKPGQPPKLLIYRASTRESGVPDRFSGSGSGTDFTLTISSLQAEDVAVYYCQQSKEDPLTFGGGTKVEIKR | 1.33 ng/mL | – |
| anti-c-Met humanized antibody AAJ8D6 (antibody, human IgG1, kappa, V domains shown, also called AAJ8D6 antibody) VH: QVQLEQSGPEVVKPGASVKVSCKASGYSFTSYWMHWVRQAPGQGLEWMGMIDPSDSESRLNQKFKDRVTMTVDTPTSTVYMELSSPRSEDTAVYYCARSGYHGTSYWYFDVWGQGTLVTVSS VL: DIVMTQSPLSLPVTPGEPASISCRSSKSLLHSDGITYLYWYLQKPGQSPQLLIYQMSNLASGVPDRFSGSGSGTDFTLKISRVEAEDVGVYYCAQNLELPPTFGGGTKVEIKR | 0.54 ng/mL | 3.53 ng/mL |
